For assay [1], the target named is T1, C1q purified from human serum (human, UniProt P02745 23-245; P02746 28-253; P02747 29-245). Put plainly: BLI; 2:1 heterogeneous ligand model, kd2 (second site). A general note: Biolayer interferometry detects binding as a change in optical thickness at a sensor tip.
In assay [2] the target is T1, C1q purified from human serum. Put plainly: BLI; 2:1 heterogeneous ligand model, KD2 (second site).
The target is the same in assay [3]. Put plainly: BLI; 2:1 heterogeneous ligand model, KD1 (first site).
The target is the same in assay [4]. Put plainly: BLI; 2:1 heterogeneous ligand model, kd1 (first site).

T1 sequence (P02745 23-245, chain 1 of 3): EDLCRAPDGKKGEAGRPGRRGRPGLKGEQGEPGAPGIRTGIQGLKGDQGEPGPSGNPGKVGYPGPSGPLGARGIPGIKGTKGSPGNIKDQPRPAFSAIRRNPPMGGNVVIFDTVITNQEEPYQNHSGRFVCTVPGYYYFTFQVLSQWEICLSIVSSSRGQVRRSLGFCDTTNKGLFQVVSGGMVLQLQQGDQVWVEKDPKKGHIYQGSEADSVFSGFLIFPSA
T1 sequence (P02746 28-253, chain 2 of 3): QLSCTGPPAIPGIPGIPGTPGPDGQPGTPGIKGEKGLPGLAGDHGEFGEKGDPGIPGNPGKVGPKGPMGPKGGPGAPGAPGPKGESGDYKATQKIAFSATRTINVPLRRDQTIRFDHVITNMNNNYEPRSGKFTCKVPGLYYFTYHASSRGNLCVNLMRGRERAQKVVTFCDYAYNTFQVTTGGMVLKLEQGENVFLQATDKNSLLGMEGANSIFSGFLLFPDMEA
T1 sequence (P02747 29-245, chain 3 of 3): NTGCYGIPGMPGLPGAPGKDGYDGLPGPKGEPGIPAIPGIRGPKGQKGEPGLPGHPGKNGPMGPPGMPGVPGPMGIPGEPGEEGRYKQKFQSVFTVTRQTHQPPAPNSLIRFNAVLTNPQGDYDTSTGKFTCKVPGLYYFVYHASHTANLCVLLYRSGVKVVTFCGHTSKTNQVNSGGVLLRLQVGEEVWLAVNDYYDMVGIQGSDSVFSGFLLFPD

B1: C1r2C1s2 catalytic tetramer (complex)
chain 1: SIPIPQKLFGEVTSPLFPKPYPNNFETTTVITVPTGYRVKLVFQQFDLEPSEGCFYDYVKISADKKSLGRFCGQLGSPLGNPPGKKEFMSQGNKMLLTFHTDFSNEENGTIMFYKGFLAYYQAVDLDECASRSKSGEEDPQPQCQHLCHNYVGGYFCSCRPGYELQEDTHSCQAECSSELYTEASGYISSLEYPRSYPPDLRCNYSIRVERGLTLHLKFLEPFDIDDHQQVHCPYDQLQIYANGKNIGEFCGKQRPPDLDTSSNAVDLLFFTDESGDSRGWKLRYTTEIIKCPQPKTLDEFTIIQNLQPQYQFRDYFIATCKQGYQLIEGNQVLHSFTAVCQDDGTWHRAMPRCKIKDCGQPRNLPNGDFRYTTTMGVNTYKARIQYYCHEPYYKMQTRAGSRESEQGVYTCTAQGIWKNEQKGEKIPRCLPVCGKPVNPVEQRQRIIGGQKAKMGNFPWQVFTNIHGRGGGALLGDRWILTAAHTLYPKEHEAQSNASLDVFLGHTNVEELMKLGNHPIRRVSVHPDYRQDESYNFEGDIALLELENSVTLGPNLLPICLPDNDTFYDLGLMGYVSGFGVMEEKIAHDLRFVRLPVANPQACENWLRGKNRMDVFSQNMFCAGHPSLKQDACQGDSGGVFAVRDPNTDRWVATGIVSWGIGCSRGYGFYTKVLNYVDWIKKEMEEED
chain 2: EPTMYGEILSPNYPQAYPSEVEKSWDIEVPEGYGIHLYFTHLDIELSENCAYDSVQIISGDTEEGRLCGQRSSNNPHSPIVEEFQVPYNKLQVIFKSDFSNEERFTGFAAYYVATDINECTDFVDVPCSHFCNNFIGGYFCSCPPEYFLHDDMKNCGVNCSGDVFTALIGEIASPNYPKPYPENSRCEYQIRLEKGFQVVVTLRREDFDVEAADSAGNCLDSLVFVAGDRQFGPYCGHGFPGPLNIETKSNALDIIFQTDLTGQKKGWKLRYHGDPMPCPKEDTPNSVWEPAKAKYVFRDVVQITCLDGFEVVEGRVGATSFYSTCQSNGKWSNSKLKCQPVDCGIPESIENGKVEDPESTLFGSVIRYTCEEPYYYMENGGGGEYHCAGNGSWVNEVLGPELPKCVPVCGVPREPFEEKQRIIGGSDADIKNFPWQVFFDNPWAGGALINEYWVLTAAHVVEGNREPTMYVGSTSVQTSRLAKSKMLTPEHVFIHPGWKLLEVPEGRTNFDNDIALVRLKDPVKMGPTVSPICLPGTSSDYNLMDGDLGLISGWGRTEKRDRAVRLKAARLPVAPLRKCKEVKVEKPTADAEAYVFTPNMICAGGEKGMDSCKGDSGGAFAVQDPNDKTKFYAAGLVSWGPQCGTYGLYTRVKNYVDWIMKTMQENSTPRED
As usually defined, the koff is the rate constant with which the complex falls apart. Read a high koff as a short-lived complex. Usually Kd stands for the concentration at which binding is half-saturated. High values mean a looser complex, low ones a tighter complex. Turning to B1, the results for the koff in assay [1] and in assay [4] were 0.00928 s⁻¹ and 0.000402 s⁻¹, respectively. Moreover, the dissociation constant Kd in assay [2] was determined as 4.33 nM; in assay [3], 10 nM.

These data come from PMC9173649 (2022).
